Experimental data reported in a protein production outcome set (Wang et al. 2014).

Assay: label from the status in PepcDB records

Sequence | protein production
MLRRSFSSYLRQGLLLAFLAAFSALWLAQAHAERRAAIVVGNSEYPFAPLTNPRNDAKLIANTLTELKFDVLLFYDVKKSAEKDLNDAIRAHLIGADMAVFYYAGHALQYNGQNLLLPVDTRISSAKEVAADAMRLNDLIDIVKNDPVGVKVFILDACRNNPVAKEKGLQQGLAYTEAGSGQVLVAFATSAGEVAYDGTGINSPYSSALANALLMPNLDVYDTFRTVRGDVRQATGGSQIPWITGSIETKFVFRQGDAGKQVAQAEHAAEADGGLTIDEVLWSFISDSQNPEDFERFVKVFPNSRYAAEATEKSRFKVAALTKRGLYVNGNLVSSSIAATAPIGASDKALSEEFVFQQAGERAVSETFRIWPSNLPDTQRGMRTMVTDCDLYAADPNDPQRAVPGVTNGLVNVRDALRACAFALAADINNPRLQFQFGRVLEIARRYSWAEHFYELAGNQQYSAALINMGYMARVGMGREIDYGRAFDPYVRAAALGNLRARTDIGSAYIAGQGVPKLPEEGVLWYRLAASSGWANAITALGDAYRLGTGVKQDYVQAASLYSAAADTGQIDAMANLGQAYLAGEGVKKDVPRGLELLQRANDMGNRYAPYFMAQLYLKGDRKLPADPRRALALLELSANRGNEYAYVRLAWGHRDGVFTGGKPDLRRAYFDASLAARLRADQGEQAKAEIAKKIDPATRKEIDGEVELYIKQNGP | failed
MLRSSSVDRKREEEPRLSYMIARVDRIISKYLTEHLSALEISLPQFTALSVLAAKPNLSNAKLAERSFIKPQSANKILQDLLANGWIEKAPDPTHGRRILVTVTPSGLDKLNQCNQVVQQLEAQMLQGVDINLAFLIRNNLELMVKNLSTFSSLDQSKE | not failed
MLRVFHFYGMLRLPRSGIEQSLKGERCTVSTQIRILPENLTNKIAAGEVVERPASVVKELVENSLDAGCRDIIVEIEAGGRRLIRVTDDGSGMSREDALLSLERHATSKIASDDDLFSLCTLGFRGEALPSIASVSRFSLATRQRGAIEGTEIYAEGGRIKEVKACGMAEGTVITVRNLFFNTPARLKFMKSAETEAGHVGDLLTRLAISRPEVRFTYVNDGKTVFRALNGTMEERVAALLGRTIAGALYPLDSTVEGVTVRGLVARPDVSRSAAGHLYTFINGRFIRDRVVQHAVLQAYRNFLERGRYPVVVLFIQVPAGDVDVNVHPTKHEVRFRQQGVVHDVIQGVIEEALRPTPWLRKESQSTVSSPPPERREPATSSERVAEVRELLVNYRPSPAPSRPFFQPLPAVVPAPDQSAEEPDRPMDRGYFSRLAIIGQFHASYILCQDGSDLVIIDQHAAHERVAFERLKAQFAAGGVEGQGLLFPDTLELSHREVAELREHGEELRRIGFDLDEFGGTTWVVKGVPRLLAGKDYLRILRDTLEEFQAVGANRSVADAVEEILTRIACHSVVRGEHPLTTAQIEALFAQMDATDYSTNCPHGRPVLQRLTLAEVERMFKR | failed
MLRVLSVGVAFILLGCQFFNKTTLHLKYKDYPKNSALKTAFTLTPPKIFFNARFVPPFYQKEFKKAITQQIAYFLKDKSAFILNVSGNVFFSFEENPKDLKAIKERLKKTIEPNADPKAVMRFLNLQASLILECVPQTTCPFDTLLIPTAFSVPVYYANRLGDNPSLFSQEDKTYHNALIKALNKAYYSLMEGLEKRLNAIKNAEWL | failed
MLRVVEVCWRESHMKVLAINSSPRMDKGNTALILNPFLEGMKEAGAEVELFYTKKLKISPCTGEFNCWLKTPGKCYQNDDMNILYPRIDAADVIVFATPVYVDGVTGQMKNFIDRMLPRVEPFVELRDGHCRHPVRGGPKALKFVLVSNCGFWEMDNFDSLLVFMKAFCKNASTEFAGALLRPHGEALSSMLEMGAPIDDVFEAAREVGRQLVKEGKMSQETLDIVSRELLPKEMYIQIANQTFRQCLESLDRLEHHHHHH | failed
MLSANQIKFLRSLRERKYRLREQAFAVEGPKLVGEMLPFYRCRMLVGTAAMLRAVSTPHDAEVVELPESFDFKRISTQTTPQPLMAVFDLPAEPEPVVEGLTLLLDGVQDPGNVGTILRTADWFGIRHVWLGTGSADVFSPKVVQASMGALARVQPTPLKNTVDTLAYFRRQGIPVYGAFLDGQSLYEAPLPNFTEPAILVLGSEGRGISPEVAAEITDRLTIPASGLSVKGHTESLNVAIATAILCSEWRRRS | not failed
MLSEQALELIDIVARVGSFTAAANRLHKVPSAVSYAVKQIEEELGVVLFERHHRSVTLTPAGGHFVKQARNLLTQIDEMKRGTQRVANGWQPTLSIALDNIVRADRISVLIADFYRHFHDIELIIRIEVFNGVWEALATGHSDVAIGATTAIPVGGVFQYKDMGDIEWAFLVSKNHPLANIDRPLTDEELRPFPSICLEDTSREIPKRMTWLLENQRRLVVPDWIRAINCFREGLGIGYMPVHLASVFIKAGALVEKQLENPKLTSPCCLAWNADKMSPALAWVLDYLGDTDKLHREWLA | failed
MLSKILKTSLCFIFMTCWVTTAQAFKGPLETPASMKLHATTSQLTAVTRNGNRLAAVGARGLVLLSDDNGKKWQQVAVPVSSNLVSVQFPVPDQGWAVGHDGVVLHSGDGGRTWSKQLDGNQVAKIMLKHYEKLAAEGDAAASKILPDIQRILQEGADKPFMDVWFLDEKEGFVAGAFNLIMHTTDAGKTWVPLFERTDNPKNLHIYALKGVGKEVYLAGEMGMLRRWDRASQRFVTIASPYKGTFFGLLAKDTTILAFGLRGNAFRSSDRGNTWRKLNTNTTAGLTGGTFLDDGRAVLVSQDGQVLVIDVGSETFVPAKVSSPMAFSSVAPAGKNGIVAVGSRGVITESLK | failed
MLSKRDAILKAAVEVFGKKGYDRATTDEIAEKAGVAKGLIFHYFKNKEELYYQAYMSVTEKLQKEFENFLMKNRNRDIFDFMERWIEKKLEYSASHPEEADFLITLVSVDEGLRKRILLDLEKSQRVFFDFVREKLKDLDLAEDVTEEIALKFLMWFFSGFEEVYLRTYQGKPELLKRDMNTLVEEVKVMLRILKKGMTK | not failed
MLSKSKTTKALLYSTAALSLFAASHVHADETSHWTARSVDQIKADISVNDNQQTYTVQYGDTLGSIVEAMGIDMNVLANIKEITNIDLIFPGTVLTTTYNADNQAVSVKVETPSSETSDTPVVAESNLTTNEVTVNGQSVVASDLSAPVETVSLTATQAPAKEESTQVVSEVTEAIASASDTPAYADTEQPVADAIDHVTSSAEETLAEEEAPATETSAQAETTEVAATSEAASEAASEVPAEQLAAASEAPESSEAPAEQPAAAPESSEAPAEQPAATSEAASEAPASVVPVATSEAVSEAPAVSEVPAEQLAAASEAPESSEVPAEQPAAAPESSEAPAEQPAATSEAAPATSEAPAEQLAATSEAASTPNTYPVGQCTWGAKSLAPWAGNNWGNAKDWIASAQAAGHSVGTTPVAGAIAVWPNDGGGYGHVAYVTSASGVNSIQVMESNYAGNMLIGNYRGTFDPTSSAHGGSVYYIYP | failed
MLSRRASLAAIAIGLIAAAGAAHAQSPLGIGSAEPSFSLGGPFAPLMQWINVHQQMFYRALTGALKAMREDSWALGSLIGLSFAYGVFHAAGPGHGKAVISSYMIANETQLRRGILISFVSALIQGLMAIGLVGAAWLVLRGTSITMTKATQAMEIASFAMVALFGAWLLVRKLWSLRIRREPVPVFATAGEAPAARTNGMGTGLRFQGKPVFADHDHNGTGDLCTACGKSHAPDPMLLKGKNFSLHEAWSAIIAVGLRPCSGAIIVMSFALLNGLYLGGVLSVLAMSLGTAITVSALAIMAVSAKGLAVRFAGPGSRKAAGISHAIEIAGALFVLIMGLLLLGASLQF | failed
MLSYPGELQGCRVILYLVGHHLYLIPTTISMCGCPEEGAYMRRLWGYISIITATIFFGISATLDKIMLSSMHPVTIGAYTYIIAGIFLFFIRETPLREHVLNAINRKGESEARIKRNDYLILLLTALLSTVIAPLLFLTGLGDTTAVNASLILNVEVLFIILLGYLIFRETLQLKDFLGIVLIILGAVYLLTEGDFSTILRNVAVTGNFLVMAAAFFWSLDTVLSKFLSRKRDLIFISGVKSSVGGFVLLIIMLILGINTELPLEMLPYALGVSVFSIGCSFILIYIAIREIGASMVGALFPLSSLFGAIFAFIILREPFSIMQGISGIVMLTGVFILYWNGK | failed
MLTDALLAFLHFTAIFVLVTLMAAEAVVLRPDMPPSAVRRLSQYDFFYFLSAMVVLATGLLRLFYGAKGVDFYLHNPWFHAKITVFVLIALATLPPTFAFARWRKQSLKLPEFVPTPAEIKKVRRWVMIEAHAFILLPLCAVMMARGIGIH | failed
MLTDSGGGGTSFEEDLDSVAPRSAPAGASEPPPPGGVGLGIRTVRLFGEAGPASGVGSSGGGGSGSGTGGGDAALDFKLAAAVLRTGGGGGASGSDEDEVSEVESFILDQEDLDNPVLKTTSEIFLSSTAEGADLRTVDPETQARLEALLEAAAFADPEVLRRLTSSVSCALDEAAAALTRMKAENSHNAGQVDTRSLAEACSDGDVNAVRKLLDEGRSVNEHTEEGESLLCLACSAGYYELAQVLLAMHANVEDRGNKGDITPLMAASSGGYLDIVKLLLLHDADVNSQSATGNTALTYACAGGFVDIVKVLLNEGANIEDHNENGHTPLMEAASAGHVEVARVLLDHGAGINTHSNEFKESALTLACYKGHLDMVRFLLEAGADQEHKTDEMHTALMEACMDGHVEVARLLLDSGAQVNMPADSFESPLTLAACGGHVELAALLIERGANLEEVNDEGYTPLMEAAREGHEEMVALLLAQGANINAQTEETQETALTLACCGGFSEVADFLIKAGADIELGCSTPLMEASQEGHLELVKYLLASGANVHATTATGDTALTYACENGHTDVADVLLQAGADLDKQEDMKTILEGIDPAKHQVRVAFDACKLLRKE | failed
MLTHYAALRASDRETFLIIELGGLGGRMGLVFVVMIVVLLYAPVHVPTYVGTLLGLLFVSIAFEIWMIVRRMRQDGLMARD | failed
MLTKVIEQAKIDHFTKWFERADKIVIVSHVSPDGDAIGSSLGLYHFLDSQEKTVNVIVPNAFPDFLRWMPGSKDILLYDRYKDFADKLIAEADVICCLDFNALKRIDEMADAVAASPARKVMIDHHLYPEEFCKITMSYPKISSTSELIFRLICRMGYFSDISKEGAECIYTGMMTDTGGFTYNSNNREIYFIISELLSKGIDKDDIYRKVYNTYSESRLRLMGYVLSNMVVYSDYNAALISLTKEEQSKFDYIKGDSEGFVNIPLTIKNVCFSCFLREDTEKPMIKISLRSVGTFPCNQLAAEFFNGGGHLNASGGEFFGTIEEAKAVFEQALEKYKPLLTAKSLEHHHHHH | not failed
MLTLLNLLSAVTLLVWGTHIVRTGILRVFGSNLRRIISQNMDKRPLAFIAGILVTAMVQSSNATAMLVTSFVGQGLMAMTPALAIMLGADVGTALMARVLTFDLSWLSPLLIFLGVIFFLSRKQTRAGQLGRVGIGLGLIILALELIVQAAAPITQAQGVKVLFASLTGDIMLDALVGAMFAMISYSSLAAVLLTATLAGAELISLPVAIGLVVGANIGSGLLAFISTSMQNAAGRRVALGSLLYKLIGLVLIIPVLHPLVAWMDSLSFSPQELVIGFHLLYNTLRCLIMLPTVKPMGRLCNALLPEREIGNGQVRPRHLDASALETPSLALANAARETLRLGDIVDSLLEAMLGALRGTQTALPQQVRALGEDAEALYSAIKLYLAQMSREDLSEQDNRRWAEIIELSINLKLACDLIERMLRKVQQQKTSQRREFSQVGLEELTGLQEQLLANLRLGLSVFLSADPESARLLLREKRRFRAQERRLAHAHVSRLQRKVVQSIETSSLHLELIADMKRLNSLFCSSAYVVLGGSDTGGLMLDSVPDEARLP | failed
MLTLLSPCTLPVIPLLFASVRGRRGQLAIMLAGMALMFGAVSWLVTVASGWVVNLTLAGRGLALAFFALVGLSLLSQRVAQRLTSPLVALGNQLNDASSRQRGWIGSLLAGLAVGLLWAPCAGPVLGAILSLGFVHPGQATTGGLLLAYGSGGALMLFLLGWCGAALIARLRRGQAFGERLRRLAGGAMLASVALIASGGDRYLQSAGGLSQALEQRLAARLPQPEQKTSLQPIAAPQPSSAMPSLAGGSAWINSPALTPERLKGKVVLVDFWTRECINCQHTLPYVRDWANKYRAAGLVVIGVHTPEYPWERSLPLLRQAVKDWRITYPVVADNEYAIWNAFGNQYWPAHYIFDARGQLRYTAFGEGDYARQEQVIQQLLQESKA | failed
